Sequences and labels used below:
T1: human FcγRIIaR extracellular domain, His-tagged (human, UniProt P12318 34-217)
T1 construct: also called human FcγRIIa (type R); FcgRIIaR
T1 chain: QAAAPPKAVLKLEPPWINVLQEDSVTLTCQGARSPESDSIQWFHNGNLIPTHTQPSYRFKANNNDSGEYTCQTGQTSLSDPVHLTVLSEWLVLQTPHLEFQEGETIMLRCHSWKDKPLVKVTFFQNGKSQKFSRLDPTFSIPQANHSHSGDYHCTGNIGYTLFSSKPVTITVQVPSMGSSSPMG

T2: human FcγRIIaH extracellular domain, His-tagged (human, UniProt P12318 34-217)
T2 construct: also called human FcγRIIa (type H); FcgRIIaH
T2 sequence: T1 chain with R134H

T3: cynomolgus monkey FcγRIIa1 extracellular domain, His-tagged (cynomolgus monkey)
T3 construct: also called cyno FcγRIIa1; cynoFcgRIIa1
T3 chain: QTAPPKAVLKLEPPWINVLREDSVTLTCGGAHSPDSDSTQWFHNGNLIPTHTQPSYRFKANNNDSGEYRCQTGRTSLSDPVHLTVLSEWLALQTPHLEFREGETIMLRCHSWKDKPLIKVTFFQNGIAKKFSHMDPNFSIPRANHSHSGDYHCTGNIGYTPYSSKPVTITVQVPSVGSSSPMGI

T4: cynomolgus monkey FcγRIIIaS extracellular domain, His-tagged (cynomolgus monkey, UniProt Q8SPW2 21-206 at identity 1.00))
T4 construct: also called cyno FcγRIIIaS; cynoFcγRIIIaS
T4 chain: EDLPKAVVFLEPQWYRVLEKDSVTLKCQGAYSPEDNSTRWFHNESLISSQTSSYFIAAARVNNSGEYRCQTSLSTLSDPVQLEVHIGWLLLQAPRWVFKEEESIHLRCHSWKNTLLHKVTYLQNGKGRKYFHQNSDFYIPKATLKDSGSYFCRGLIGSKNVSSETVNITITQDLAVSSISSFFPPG

T5: cynomolgus monkey FcγRIIa2 extracellular domain, His-tagged (cynomolgus monkey)
T5 construct: also called cyno FcγRIIa2; cynoFcgRIIa2
T5 chain: T3 chain with P95T, T121A, I127K, A128S, K130N, D135N, R142Q

T6: cynomolgus monkey FcγRIIa3 extracellular domain, His-tagged (cynomolgus monkey)
T6 construct: also called cyno FcγRIIa3; cynoFcgRIIa3
T6 chain: T3 chain with P95T, T121A, A128S, H133P, D135N

T7: cynomolgus monkey FcγRIIb extracellular domain, His-tagged (cynomolgus monkey)
T7 construct: also called cyno FcγRIIb; cynoFcγRIIb
T7 chain: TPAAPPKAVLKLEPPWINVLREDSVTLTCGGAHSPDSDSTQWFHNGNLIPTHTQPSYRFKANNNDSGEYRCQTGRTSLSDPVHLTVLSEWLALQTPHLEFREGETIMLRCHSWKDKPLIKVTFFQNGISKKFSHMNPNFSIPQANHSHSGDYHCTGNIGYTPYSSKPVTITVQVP

B1: M103205H795-MY043/M103202L889-SK1 (antibody, human IgG1, kappa)
heavy: not shown
light: DIVMTQSPATLSLSPGERATLSCTSSQSVYHANWLSWFQQKPGQPPKLLIYWASTLAYGVPSRFSGSGSGTDFTLTISSLQPEDAATYYCAGGYGGGRYAFGQGTKVEIKRTVAAPSVFIFPPSDEQLKSGTASVVCLLNNFYPREAKVQWKVDNALQSGNSQESVTEQDSKDSTYSLSSTLTLSKADYEKHKVYACEVTHQGLSSPVTKSFNRGEC
notes: Substitution put into M103205H795-SG1
B2: M103205H795-MY063/M103202L889-SK1 (antibody, human IgG1, kappa)
heavy: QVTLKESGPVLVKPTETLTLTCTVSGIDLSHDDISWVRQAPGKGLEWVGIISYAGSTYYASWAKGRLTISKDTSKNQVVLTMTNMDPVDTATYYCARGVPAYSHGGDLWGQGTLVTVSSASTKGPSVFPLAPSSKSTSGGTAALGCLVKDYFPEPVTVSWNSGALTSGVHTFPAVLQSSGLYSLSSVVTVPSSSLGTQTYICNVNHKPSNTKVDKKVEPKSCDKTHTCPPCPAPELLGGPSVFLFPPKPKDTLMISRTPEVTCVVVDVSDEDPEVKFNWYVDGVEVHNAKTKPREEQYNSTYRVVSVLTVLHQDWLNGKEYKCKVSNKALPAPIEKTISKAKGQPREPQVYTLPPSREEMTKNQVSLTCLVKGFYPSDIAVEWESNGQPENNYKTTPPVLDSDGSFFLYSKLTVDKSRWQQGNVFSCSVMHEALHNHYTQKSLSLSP
light: B1 light
notes: as for B1
B3: M103205H795-MY071/M103202L889-SK1 (antibody, human IgG1, kappa)
heavy: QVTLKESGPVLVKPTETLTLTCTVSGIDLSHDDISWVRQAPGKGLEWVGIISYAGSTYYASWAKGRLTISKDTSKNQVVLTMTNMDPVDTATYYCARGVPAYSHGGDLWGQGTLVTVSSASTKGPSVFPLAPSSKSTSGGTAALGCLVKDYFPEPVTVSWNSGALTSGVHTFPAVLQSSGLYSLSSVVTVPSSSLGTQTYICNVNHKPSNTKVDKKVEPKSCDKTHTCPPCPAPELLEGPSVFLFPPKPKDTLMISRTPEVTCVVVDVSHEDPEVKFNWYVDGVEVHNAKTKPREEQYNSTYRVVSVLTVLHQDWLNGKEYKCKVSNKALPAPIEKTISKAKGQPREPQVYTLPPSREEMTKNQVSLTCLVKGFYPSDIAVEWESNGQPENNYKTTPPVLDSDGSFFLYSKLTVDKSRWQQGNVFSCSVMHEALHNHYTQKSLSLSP
light: B1 light
notes: as for B1
B4: M103205H795-MY073/M103202L889-SK1 (antibody, human IgG1, kappa)
heavy: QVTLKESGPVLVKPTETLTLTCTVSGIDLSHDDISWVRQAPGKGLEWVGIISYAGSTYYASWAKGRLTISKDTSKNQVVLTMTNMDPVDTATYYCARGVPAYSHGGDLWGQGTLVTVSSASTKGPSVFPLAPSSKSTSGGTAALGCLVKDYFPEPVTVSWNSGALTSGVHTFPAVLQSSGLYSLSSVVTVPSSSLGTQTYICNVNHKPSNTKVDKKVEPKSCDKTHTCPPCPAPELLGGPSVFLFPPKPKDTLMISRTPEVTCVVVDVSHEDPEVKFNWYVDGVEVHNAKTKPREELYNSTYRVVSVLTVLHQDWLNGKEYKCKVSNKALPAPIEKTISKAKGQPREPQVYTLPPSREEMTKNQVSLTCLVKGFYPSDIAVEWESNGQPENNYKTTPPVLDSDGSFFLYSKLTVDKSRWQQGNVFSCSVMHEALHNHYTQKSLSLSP
light: B1 light
notes: as for B1
B5: M103205H795-MY070/M103202L889-SK1 (antibody, human IgG1, kappa)
heavy: not shown
light: B1 light
notes: as for B1
B6: M103205H795-MY124/M103202L889-SK1 (antibody, human IgG1, kappa)
heavy: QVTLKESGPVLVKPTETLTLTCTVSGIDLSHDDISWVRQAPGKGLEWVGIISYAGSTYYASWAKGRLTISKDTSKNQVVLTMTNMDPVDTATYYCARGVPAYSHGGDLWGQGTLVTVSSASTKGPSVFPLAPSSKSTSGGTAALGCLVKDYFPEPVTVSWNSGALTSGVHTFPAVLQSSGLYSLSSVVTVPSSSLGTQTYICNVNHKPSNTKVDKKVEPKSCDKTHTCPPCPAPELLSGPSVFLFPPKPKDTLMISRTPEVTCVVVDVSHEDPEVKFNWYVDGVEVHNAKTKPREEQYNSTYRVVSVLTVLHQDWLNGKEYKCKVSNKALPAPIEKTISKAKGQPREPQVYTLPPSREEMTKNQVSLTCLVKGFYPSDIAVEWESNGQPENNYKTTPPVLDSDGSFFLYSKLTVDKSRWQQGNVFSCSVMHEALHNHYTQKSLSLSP
light: B1 light
notes: as for B1
B7: M103205H795-MY072/M103202L889-SK1 (antibody, human IgG1, kappa)
heavy: not shown
light: B1 light
notes: as for B1
B8: M103205H795-MY064/M103202L889-SK1 (antibody, human IgG1, kappa)
heavy: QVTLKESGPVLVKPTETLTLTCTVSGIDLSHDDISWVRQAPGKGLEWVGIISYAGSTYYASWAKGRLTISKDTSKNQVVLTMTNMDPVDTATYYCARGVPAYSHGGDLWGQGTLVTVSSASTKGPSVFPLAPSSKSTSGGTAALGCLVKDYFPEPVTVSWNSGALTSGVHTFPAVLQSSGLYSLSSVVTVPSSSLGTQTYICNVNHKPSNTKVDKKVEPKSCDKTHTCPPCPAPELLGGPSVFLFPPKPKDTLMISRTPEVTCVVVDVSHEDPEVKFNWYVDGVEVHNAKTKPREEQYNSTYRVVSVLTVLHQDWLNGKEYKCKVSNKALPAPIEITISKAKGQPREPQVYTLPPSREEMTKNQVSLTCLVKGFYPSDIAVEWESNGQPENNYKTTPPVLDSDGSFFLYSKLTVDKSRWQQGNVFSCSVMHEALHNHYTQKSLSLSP
light: B1 light
notes: as for B1
B9: M103205H795-MY196/M103202L889-SK1 (antibody, human IgG1, kappa)
heavy: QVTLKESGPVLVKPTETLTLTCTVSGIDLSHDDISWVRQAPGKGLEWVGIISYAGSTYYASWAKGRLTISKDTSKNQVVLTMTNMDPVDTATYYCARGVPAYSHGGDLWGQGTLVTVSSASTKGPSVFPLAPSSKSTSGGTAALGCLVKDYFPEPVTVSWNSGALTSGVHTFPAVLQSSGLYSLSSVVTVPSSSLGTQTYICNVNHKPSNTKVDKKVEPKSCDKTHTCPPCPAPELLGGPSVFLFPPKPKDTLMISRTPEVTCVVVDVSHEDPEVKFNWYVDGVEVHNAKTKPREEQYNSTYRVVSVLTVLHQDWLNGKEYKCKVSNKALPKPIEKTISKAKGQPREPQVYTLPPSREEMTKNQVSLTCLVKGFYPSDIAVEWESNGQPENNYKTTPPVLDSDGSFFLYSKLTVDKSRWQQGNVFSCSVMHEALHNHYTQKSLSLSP
light: B1 light
notes: as for B1
B10: M103205H795-MY045/M103202L889-SK1 (antibody, human IgG1, kappa)
heavy: not shown
light: B1 light
notes: as for B1
B11: M103205H795-MY048/M103202L889-SK1 (P271D) (antibody, human IgG1, kappa)
heavy: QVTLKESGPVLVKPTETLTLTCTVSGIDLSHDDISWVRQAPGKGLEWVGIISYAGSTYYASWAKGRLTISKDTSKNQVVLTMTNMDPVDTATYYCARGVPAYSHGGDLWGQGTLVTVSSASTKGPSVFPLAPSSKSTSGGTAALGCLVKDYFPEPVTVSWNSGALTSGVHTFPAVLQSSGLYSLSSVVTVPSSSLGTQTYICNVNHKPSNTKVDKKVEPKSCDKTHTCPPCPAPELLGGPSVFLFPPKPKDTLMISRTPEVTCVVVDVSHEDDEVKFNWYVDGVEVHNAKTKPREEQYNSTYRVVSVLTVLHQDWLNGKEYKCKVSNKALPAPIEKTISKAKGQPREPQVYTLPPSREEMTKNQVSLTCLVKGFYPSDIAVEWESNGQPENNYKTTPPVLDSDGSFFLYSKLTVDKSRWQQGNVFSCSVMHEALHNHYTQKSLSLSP
light: B1 light
notes: Here the P271D molecule is meant; Put into M103205H795-SG1
B12: M103205H795-MY068/M103202L889-SK1 (antibody, human IgG1, kappa)
heavy: not shown
light: B1 light
notes: as for B1
B13: M103205H795-MY065/M103202L889-SK1 (antibody, human IgG1, kappa)
heavy: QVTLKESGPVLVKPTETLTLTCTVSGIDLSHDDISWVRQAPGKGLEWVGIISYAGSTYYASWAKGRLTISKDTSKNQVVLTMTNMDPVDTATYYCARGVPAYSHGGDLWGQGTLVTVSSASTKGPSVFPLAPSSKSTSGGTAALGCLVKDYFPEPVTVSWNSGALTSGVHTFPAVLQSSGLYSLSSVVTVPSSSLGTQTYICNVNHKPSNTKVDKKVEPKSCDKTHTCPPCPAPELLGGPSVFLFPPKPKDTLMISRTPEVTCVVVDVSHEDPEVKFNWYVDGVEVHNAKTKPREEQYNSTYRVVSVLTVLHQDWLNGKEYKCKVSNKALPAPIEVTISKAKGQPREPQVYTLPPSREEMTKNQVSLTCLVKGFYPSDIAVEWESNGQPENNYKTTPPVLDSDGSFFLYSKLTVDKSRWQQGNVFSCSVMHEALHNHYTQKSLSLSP
light: B1 light
notes: as for B1
B14: M103205H795-MY044/M103202L889-SK1 (antibody, human IgG1, kappa)
heavy: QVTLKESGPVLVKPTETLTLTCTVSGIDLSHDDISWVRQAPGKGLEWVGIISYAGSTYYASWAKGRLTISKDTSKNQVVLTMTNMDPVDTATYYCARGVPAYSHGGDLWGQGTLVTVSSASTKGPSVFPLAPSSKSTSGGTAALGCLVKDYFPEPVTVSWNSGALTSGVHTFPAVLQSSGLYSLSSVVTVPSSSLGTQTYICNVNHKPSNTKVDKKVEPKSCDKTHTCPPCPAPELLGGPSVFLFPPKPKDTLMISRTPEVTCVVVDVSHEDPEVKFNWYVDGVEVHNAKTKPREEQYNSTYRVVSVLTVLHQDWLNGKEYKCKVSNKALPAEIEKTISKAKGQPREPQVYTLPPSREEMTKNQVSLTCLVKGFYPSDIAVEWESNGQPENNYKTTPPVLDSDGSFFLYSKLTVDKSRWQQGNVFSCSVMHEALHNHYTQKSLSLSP
light: B1 light
notes: as for B1
B15: M103205H795-MY069/M103202L889-SK1 (antibody, human IgG1, kappa)
heavy: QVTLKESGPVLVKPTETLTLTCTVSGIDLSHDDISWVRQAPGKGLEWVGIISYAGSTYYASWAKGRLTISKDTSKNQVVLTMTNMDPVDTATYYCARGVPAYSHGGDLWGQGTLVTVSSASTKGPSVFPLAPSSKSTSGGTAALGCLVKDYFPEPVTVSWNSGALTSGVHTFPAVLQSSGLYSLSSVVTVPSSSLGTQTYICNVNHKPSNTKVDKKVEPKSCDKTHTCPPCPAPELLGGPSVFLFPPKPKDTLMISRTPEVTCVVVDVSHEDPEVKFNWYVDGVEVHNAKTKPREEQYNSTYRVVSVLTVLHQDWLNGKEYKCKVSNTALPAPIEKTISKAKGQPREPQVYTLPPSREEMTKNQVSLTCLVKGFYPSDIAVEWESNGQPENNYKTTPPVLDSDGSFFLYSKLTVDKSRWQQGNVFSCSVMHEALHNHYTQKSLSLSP
light: B1 light
notes: as for B1

As a reminder, the Kd is the concentration at which binding is half-saturated.

Residue numbers refer to the chain shown, from its start. Names and notes keep the numbering of the source.

In one experiment the target is T1, human FcγRIIaR extracellular domain, …. The experiment is described as follows: SPR, antibody captured, FcgR analyte. For orientation: Surface plasmon resonance follows binding to a sensor surface in real time, without labels.
B1 displayed a Kd of 1500 nM.

In turn, B2 had a Kd of 210 nM.

For the molecule B3, binding was put at a Kd of 450 nM.

Turning to B4, binding was characterised by a dissociation constant (Kd) of 500 nM.

Molecule B5 came in with a Kd of 740 nM.

Take B6: the Kd turned out to be 520 nM.

Regarding B7, binding was put at a Kd of 480 nM.

B8 registered a Kd of 680 nM.

In turn, B9 yielded a Kd of 1300 nM.

With B10, the Kd came out at 1600 nM.

The molecule B11 registered a Kd of 1200 nM.

Molecule B12 yielded a Kd of 520 nM.

As to B13, binding was characterised by a dissociation constant (Kd) of 510 nM.

Turning to B14, the Kd worked out at 920 nM.

B15: binding was characterised by a dissociation constant (Kd) of 390 nM.

For the next experiment, the target named is T2, human FcγRIIaH extracellular domain, …. The experiment is described as follows: SPR, antibody captured, FcgR analyte.
With B1, binding was characterised by a dissociation constant (Kd) of 2900 nM.

The molecule B2 yielded a Kd of 270 nM.

Take B3: the Kd was found to be 400 nM.

As to B4, the Kd is 240 nM.

As to B5, binding was characterised by a dissociation constant (Kd) of 500 nM.

Molecule B6 registered a Kd of 140 nM.

The molecule B7 returned a Kd of 250 nM.

The molecule B8 came in with a Kd of 500 nM.

For B9, the Kd was determined as 480 nM.

B10 returned a Kd of 1600 nM.

For the molecule B11, the Kd came out at 1800 nM.

B12 yielded a Kd of 370 nM.

B13: binding was put at a Kd of 520 nM.

The molecule B14 registered a Kd of 1200 nM.

Take B15: the Kd is 440 nM.

Another experiment deals with T3, cynomolgus monkey FcγRIIa1 …. Briefly: SPR, antibody captured, FcgR analyte.
Take B1: binding was put at a Kd of 5800 nM.

Regarding B2, binding was characterised by a dissociation constant (Kd) of 1400 nM.

Consider B3, for which the Kd was determined as 5000 nM.

Take B4: the Kd amounted to 1200 nM.

As to B5, the Kd is 2300 nM.

As to B6, the Kd is 2600 nM.

B7: binding was put at a Kd of 1000 nM.

Molecule B8 showed a Kd of 2400 nM.

In the case of B9, the Kd turned out to be 2500 nM.

B10 had a Kd of 5700 nM.

Regarding B11, the Kd amounted to 6600 nM.

For the molecule B12, binding was put at a Kd of 2100 nM.

Regarding B13, binding was characterised by a dissociation constant (Kd) of 2300 nM.

Molecule B14 displayed a Kd of 3200 nM.

B15 registered a dissociation constant Kd of 1600 nM.

Another experiment addresses T4, cynomolgus monkey FcγRIIIaS …. The experiment is described as follows: SPR, antibody captured, FcgR analyte.
For the molecule B1, binding was put at a Kd of 840 nM.

Consider B2, for which binding was characterised by a dissociation constant (Kd) of 67 nM.

B3 showed a Kd of 280 nM.

B4: binding was characterised by a dissociation constant (Kd) of 170 nM.

The molecule B5 registered a Kd of 490 nM.

B6 yielded a Kd of 1300 nM.

For B7, the Kd is 53 nM.

For the molecule B8, binding was put at a Kd of 120 nM.

For B9, binding was characterised by a dissociation constant (Kd) of 600 nM.

On to B10, for which binding was put at a Kd of 140 nM.

B11 showed a Kd of 370 nM.

In the case of B12, the Kd was determined as 580 nM.

The molecule B13 showed a Kd of 110 nM.

Molecule B14 returned a Kd of 470 nM.

In turn, B15 had a Kd of 86 nM.

For a further experiment, the target named is T5, cynomolgus monkey FcγRIIa2 …. Briefly: SPR, antibody captured, FcgR analyte.
B1 yielded a Kd of 61000 nM.

As for B2, binding was put at a Kd of 1500 nM.

Molecule B3 yielded a Kd of 3700 nM.

The molecule B4 registered a Kd of 1300 nM.

B5 returned an equilibrium dissociation constant (Kd) of 2500 nM.

As for B6, the Kd stood at 3100 nM.

In turn, B7 yielded a Kd of 1200 nM.

In turn, B8 showed a Kd of 2800 nM.

For B9, the Kd was found to be 3000 nM.

In turn, B10 gave a Kd of 4000 nM.

Molecule B11 yielded a Kd of 11000 nM.

Take B12: binding was put at a Kd of 2700 nM.

Turning to B13, the Kd is 2800 nM.

B14 gave a Kd of 3500 nM.

For B15, the Kd came to 1600 nM.

For a further experiment, the target named is T6, cynomolgus monkey FcγRIIa3 …. Briefly: SPR, antibody captured, FcgR analyte.
On to B1, for which the equilibrium dissociation constant (Kd) came to 18000 nM.

As to B2, the Kd came to 2000 nM.

With B3, the Kd is 9200 nM.

B4 gave a Kd of 5100 nM.

On to B5, for which binding was characterised by a dissociation constant (Kd) of 4700 nM.

Regarding B6, the Kd amounted to 12000 nM.

B7 yielded a Kd of 2600 nM.

In the case of B8, the Kd came to 59000 nM.

As for B9, the Kd was 23000 nM.

Molecule B10 yielded a Kd of 6800 nM.

B11: the Kd was 4400 nM.

With B12, the Kd came out at 5700 nM.

As to B13, the affinity, expressed as Kd, was 4200 nM.

B14: the Kd was 52000 nM.

B15 yielded a Kd of 6500 nM.

Another experiment deals with T8, human FcγRIIIaV extracellular domain, His-tagged (human, UniProt P08637 17-208).
T8 construct: also called FcgRIIIaV
T8 sequence (P08637 17-208 F176V): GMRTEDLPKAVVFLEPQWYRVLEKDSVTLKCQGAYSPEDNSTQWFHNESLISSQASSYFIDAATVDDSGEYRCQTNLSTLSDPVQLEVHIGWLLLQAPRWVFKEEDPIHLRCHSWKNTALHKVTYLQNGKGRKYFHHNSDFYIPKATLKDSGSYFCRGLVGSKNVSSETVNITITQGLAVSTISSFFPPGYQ
The experiment is described as follows: SPR, antibody captured, FcgR analyte.
In the case of B1, the Kd is 120 nM.

B2: the Kd stood at 160 nM.

With B3, the affinity, expressed as Kd, was 510 nM.

Molecule B4 registered a Kd of 340 nM.

In the case of B5, the Kd was 700 nM.

For the molecule B6, the Kd stood at 5200 nM.

B7: the Kd turned out to be 120 nM.

In turn, B8 returned a Kd of 220 nM.

Consider B9, for which the Kd came to 2200 nM.

B10 came in with a Kd of 240 nM.

For B11, binding was put at a Kd of 610 nM.

B12 registered a Kd of 1400 nM.

B13 displayed a Kd of 230 nM.

As for B14, the Kd is 900 nM.

B15 displayed a Kd of 240 nM.

The target of another experiment is T7, cynomolgus monkey FcγRIIb extracellular …. Briefly: SPR, antibody captured, FcgR analyte.
With B1, binding was characterised by a dissociation constant (Kd) of 4400 nM.

Consider B2, for which the dissociation constant (Kd) is 340 nM.

B3 yielded a dissociation constant (Kd) of 2500 nM.

For the molecule B4, the Kd was 670 nM.

The molecule B5 came in with a Kd of 1200 nM.

Molecule B6 returned a Kd of 2200 nM.

On to B7, for which binding was characterised by a dissociation constant (Kd) of 480 nM.

B8 returned a Kd of 1100 nM.

On to B9, for which binding was put at a Kd of 2400 nM.

B10 gave a Kd of 2200 nM.

On to B11, for which the Kd stood at 3500 nM.

B12: the Kd stood at 1000 nM.

As for B13, binding was put at a Kd of 1300 nM.

Turning to B14, the Kd came to 1600 nM.

In turn, B15 returned a Kd of 730 nM.

Source of the values: patent US20200317768A1 (published 2020).
